Assay results: the Immune Epitope Database (IEDB)

Tests used:
[1] = target: HLA-B*58:01; test: IEDB peptide-MHC binding, purified MHC/competitive/radioactivity; filed as Kd, often an IC50 or EC50 that approximates it; ≥ and ≤ were set here for values at or beyond the usual limits of such assays
[2] = target: HLA-A*30:01; test: as above; conditions: source organism: Dengue virus 2 Jamaica/1409/1983
[3] = target: HLA-A*69:01; test: IEDB peptide-MHC binding, purified MHC/direct/fluorescence; filed as Kd, often an IC50 or EC50 that approximates it; ≥ and ≤ were set here for values at or beyond the usual limits of such assays; conditions: source organism: Marburg virus - Musoke, Kenya, 1980
[4] = target: HLA-A*02:01; test: as above; conditions: source organism: Marburg virus - Musoke, Kenya, 1980
[5] = target: HLA-A*02:12; test: as above; conditions: source organism: Ravn virus - Ravn, Kenya, 1987
[6] = target: HLA-B*57:01; test: IEDB peptide-MHC binding, purified MHC/competitive/radioactivity; filed as Kd, often an IC50 or EC50 that approximates it; ≥ and ≤ were set here for values at or beyond the usual limits of such assays
[7] = target: HLA-B*18:01; test: IEDB peptide-MHC binding, purified MHC/direct/fluorescence; filed as Kd, often an IC50 or EC50 that approximates it; ≥ and ≤ were set here for values at or beyond the usual limits of such assays; conditions: source organism: Amur virus
[8] = target: HLA-B*40:01; test: as above; conditions: source organism: Amur virus
[9] = target: HLA-B*15:42; test: IEDB peptide-MHC binding, purified MHC/competitive/fluorescence; filed as Kd, often an IC50 or EC50 that approximates it; ≥ and ≤ were set here for values at or beyond the usual limits of such assays; conditions: source organism: Orthohantavirus puumalaense
[10] = target: HLA-B*83:01; test: as above; conditions: source organism: Orthohantavirus puumalaense
[11] = target: HLA-B*45:06; test: as above; conditions: source organism: Orthohantavirus puumalaense
[12] = target: HLA-A*24:02; test: IEDB peptide-MHC binding, purified MHC/competitive/fluorescence; ≥ and ≤ were set here for values at or beyond the usual limits of such assays; conditions: source organism: Zaire ebolavirus
[13] = target: HLA-B*15:01; test: as above; conditions: source organism: Zaire ebolavirus
[14] = target: HLA-B*51:01; test: IEDB peptide-MHC binding, purified MHC/competitive/radioactivity; filed as Kd, often an IC50 or EC50 that approximates it; ≥ and ≤ were set here for values at or beyond the usual limits of such assays
[15] = target: HLA-B*07:02; test: as above
[16] = target: HLA-B*54:01; test: as above
[17] = target: HLA-B*53:01; test: as above
[18] = target: HLA-B*35:01; test: as above
[19] = target: HLA-B*07:02; test: IEDB peptide-MHC binding, purified MHC/competitive/fluorescence; ≥ and ≤ were set here for values at or beyond the usual limits of such assays
[20] = target: HLA-A*24:03; test: IEDB peptide-MHC binding, purified MHC/competitive/fluorescence; filed as Kd, often an IC50 or EC50 that approximates it; ≥ and ≤ were set here for values at or beyond the usual limits of such assays
[21] = target: HLA-A*02:03; test: IEDB peptide-MHC binding, purified MHC/competitive/radioactivity; filed as Kd, often an IC50 or EC50 that approximates it; ≥ and ≤ were set here for values at or beyond the usual limits of such assays; conditions: source organism: Vaccinia virus WR
[22] = target: HLA-A*02:01; test: as above; conditions: source organism: Vaccinia virus WR
[23] = target: HLA-A*02:06; test: as above; conditions: source organism: Vaccinia virus WR
[24] = target: HLA-A*02:02; test: as above; conditions: source organism: Vaccinia virus WR
[25] = target: HLA-A*68:02; test: as above; conditions: source organism: Vaccinia virus WR
[26] = target: HLA-A*01:01; test: as above; conditions: source organism: Dengue virus 3 Sri Lanka/1266/2000
[27] = source organism: Dengue virus 4 Philippines/H241/1956
[28] = source organism: Vaccinia virus WR
[29] = source organism: Dengue virus 3 Martinique/1243/1999
[30] = source organism: Triticum aestivum
[31] = source organism: SARS coronavirus Tor2

KARSTPFNM
Kd ([1]; source organism: Dengue virus 2 Jamaica/1409/1983): 0.194 µM | Kd [2]: 0.169 µM

YLPEDSDIL
Kd [3]: ≥ 20 µM | Kd [4]: 0.525 µM | Kd [5]: 0.006 µM

KHAQRIETW
Kd ([1]; source organism: Dengue virus 2 Peru/IQT2913/1996): 0.482 µM

IASLVMLLVH
Kd [1, 27]: 1.73 µM | Kd [6, 27]: 0.435 µM

AELGAFFSI
Kd [7]: 0.0408 µM | Kd [8]: ≤ 0.001 µM | Kd [9]: ≥ 5 µM | Kd [10]: ≥ 5 µM | Kd [11]: ≥ 5 µM

RSVSGDLIL
Kd ([1]; source organism: Dengue virus 1 Brazil/97-11/1997): 0.00984 µM

IRGFPRCRY
IC50 [12]: 66 µM | IC50 [13]: ≥ 242 µM

EPISDYSAEV
Kd [14, 28]: 1.11 µM | Kd [15, 28]: 1.39 µM | Kd [16, 28]: 0.0466 µM | Kd [17, 28]: 2.39 µM | Kd [18, 28]: 1.08 µM

ISSTPLAENT
Kd ([1]; source organism: Dengue virus 4 Dominica/814669/1981): 0.951 µM

AAEAMEVA
IC50 ([19]; source organism: H1N1 subtype Influenza A/Oklahoma/7485/01): ≥ 1000 µM

EPEKDIRELL
Kd [14, 28]: ≥ 51 µM | Kd [15, 28]: 15.5 µM | Kd [16, 28]: ≥ 24.2 µM | Kd [17, 28]: 0.226 µM | Kd [18, 28]: ≥ 35.5 µM

LRKRSRRQT
IC50 ([19]; source organism: Sudan ebolavirus): 18.8 µM

IGIGVLLTW
Kd [1, 29]: 0.0116 µM | Kd [6, 29]: 0.192 µM | Kd [17, 29]: 1.14 µM

KPVIVPDIKL
Kd [14, 28]: ≥ 69.6 µM | Kd [15, 28]: 0.236 µM | Kd [16, 28]: 3.81 µM | Kd [17, 28]: 5.2 µM | Kd [18, 28]: 8.87 µM

QPFLQPQL
Kd [14, 30]: 1.11 µM | Kd [15, 30]: 0.349 µM | Kd [16, 30]: 6.35 µM | Kd [17, 30]: ≥ 87.7 µM | Kd [18, 30]: ≥ 87.8 µM

FWPQHFGLI
Kd ([20]; source organism: Escherichia coli F11): 0.0004 µM

LPNPAFIHI
IC50 ([19]; source organism: Variola virus): 11 µM

NYPVAKGSY
Kd ([20]; source organism: Influenza A virus (A/Kayano/57(H2N2))): ≥ 20 µM

AFEFINSLLK
Kd [21]: ≥ 20.6 µM | Kd [14, 28]: ≥ 69.6 µM | Kd [22]: 12.1 µM | Kd [15, 28]: ≥ 69.6 µM | Kd [23]: ≥ 42.8 µM | Kd [16, 28]: ≥ 69.9 µM | Kd [17, 28]: ≥ 69.9 µM | Kd [24]: 5.48 µM | Kd [25]: 11.5 µM | Kd [18, 28]: ≥ 69.9 µM

VSSVNMVSRL
Kd ([6]; source organism: Dengue virus 3 Sri Lanka/1266/2000): 1.03 µM | Kd [26]: 10.7 µM

FPCSICLSGL
Kd [14, 31]: 0.035 µM | Kd [15, 31]: 0.0585 µM | Kd [16, 31]: 0.0652 µM | Kd [17, 31]: 0.3 µM | Kd [18, 31]: 0.123 µM
